Test results published in patent US20230144436A1 (DYNE THERAPEUTICS, published 2023).

T1: cynomolgus monkey transferrin receptor 1 (cynomolgus monkey (Macaca fascicularis), UniProt Q5RDH6 89-760 (Pongo abelii entry), limits assumed)
T1 construct: also called cyTfR1; Cyno TfR1
T1 chain: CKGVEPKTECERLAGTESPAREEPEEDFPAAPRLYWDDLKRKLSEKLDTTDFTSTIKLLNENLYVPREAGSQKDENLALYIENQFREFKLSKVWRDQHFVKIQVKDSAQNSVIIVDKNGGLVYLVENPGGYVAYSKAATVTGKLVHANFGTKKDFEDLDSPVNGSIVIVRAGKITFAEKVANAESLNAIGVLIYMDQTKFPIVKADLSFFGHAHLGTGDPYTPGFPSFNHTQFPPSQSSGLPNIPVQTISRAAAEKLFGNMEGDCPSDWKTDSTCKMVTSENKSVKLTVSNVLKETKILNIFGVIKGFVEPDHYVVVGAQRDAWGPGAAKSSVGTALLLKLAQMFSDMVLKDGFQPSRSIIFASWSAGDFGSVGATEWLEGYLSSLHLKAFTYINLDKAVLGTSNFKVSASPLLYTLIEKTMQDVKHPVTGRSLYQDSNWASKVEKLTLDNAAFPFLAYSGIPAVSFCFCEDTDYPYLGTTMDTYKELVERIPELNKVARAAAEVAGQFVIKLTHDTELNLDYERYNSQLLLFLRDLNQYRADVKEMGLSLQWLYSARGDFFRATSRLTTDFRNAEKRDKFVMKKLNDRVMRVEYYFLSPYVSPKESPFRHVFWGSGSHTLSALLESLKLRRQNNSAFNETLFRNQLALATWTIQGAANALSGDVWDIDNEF

T2: human transferrin receptor 2 (human, UniProt Q9UP52 105-801, limits assumed)
T2 construct: also called human TfR2; hTfR2
T2 sequence (looked up): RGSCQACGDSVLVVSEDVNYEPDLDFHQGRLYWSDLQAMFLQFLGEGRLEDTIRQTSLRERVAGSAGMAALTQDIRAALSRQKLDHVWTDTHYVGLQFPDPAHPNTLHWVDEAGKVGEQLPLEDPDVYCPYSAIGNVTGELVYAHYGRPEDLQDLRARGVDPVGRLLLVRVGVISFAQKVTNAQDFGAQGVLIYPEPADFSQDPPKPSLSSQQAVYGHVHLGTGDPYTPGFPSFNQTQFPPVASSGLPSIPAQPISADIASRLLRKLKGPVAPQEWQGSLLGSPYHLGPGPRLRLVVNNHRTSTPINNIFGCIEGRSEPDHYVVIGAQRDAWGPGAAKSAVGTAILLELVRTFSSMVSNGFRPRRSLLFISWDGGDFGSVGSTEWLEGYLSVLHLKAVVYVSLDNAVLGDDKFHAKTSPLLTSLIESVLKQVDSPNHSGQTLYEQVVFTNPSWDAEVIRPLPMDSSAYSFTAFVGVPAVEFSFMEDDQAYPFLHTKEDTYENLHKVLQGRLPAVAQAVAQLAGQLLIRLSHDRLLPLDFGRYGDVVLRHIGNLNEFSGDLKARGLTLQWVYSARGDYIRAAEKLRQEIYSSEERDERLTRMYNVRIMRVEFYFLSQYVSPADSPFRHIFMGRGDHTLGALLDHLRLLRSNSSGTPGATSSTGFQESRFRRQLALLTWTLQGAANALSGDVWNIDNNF

T3: cynomolgus monkey transferrin receptor 1 (cynomolgus monkey, UniProt Q5RDH6 89-760 (Pongo abelii entry), limits assumed)
T3 construct: also called cTfR1; cyTfR1
T3 chain: T1 chain

B1: Anti-TfR antibody 15G11 (antibody, V domains shown)
VH: QVQLQQPGAELVKPGASVKLSCKASGYTFTSYWMHWVKQRPGQGLEWIGEINPTNGRTNYIEKFKSKATLTVDKSSSTAYMQLSSLTSEDSAVYYCARGTRAYHYWGQGTSVTVSS
VL: DIQMTQSPASLSVSVGETVTITCRASDNLYSNLAWYQQKQGKSPQLLVYDATNLADGVPSRFSGSGSGTQYSLKINSLQSEDFGTYYCQHFWGTPLTFGAGTKLELK
notes: Known control antibody; It was captured as an IgG on the Carterra chip; also called ctrl-15G11; 15G11 (control)
B2: 15G11 (antibody, V domains shown)
VH: B1 VH
VL: B1 VL
notes: Known anti-TfR1 antibody used as control; also called control antibody 15G11; ctrl-15G11
B3: 10-H2 (antibody, V domains shown)
VH: EVQLVESGGDLVKPGGSLKLSCAASGFTFSDYGMHWVRQGPEKGLEWVAYINSGSSTIYYADTVKGRFTISRDNAKNTLFLQMTSLRSEDTAMYYCARPGDYDNYAMDYWGQGTSVTVSS
VL: DIVMTQSHKFLSTSVGDRVSITCKASQDVSVAVAWYQQKPGQSPKLLIYWAYTRHTGVPDRFTGSGSGTEYTLTISSVQAEDLALYYCQQHYNTPPWTFGGGTKLEIK
notes: Tested as a mouse monoclonal IgG; also called 10-H02
B4: anti-TfR antibody shown in Table 7, unconjugated (Example 18) (antibody, V domains shown)
VH: QVQLVQSGAEVKKPGESLKISCKGSGYSFTSYWIGWVRQMPGKGLEWMGIIYPGDSDTRYSPSFQGQVTISADKSISTAYLQWSSLKASDTAMYYCARFPYDSSGYYSFDYWGQGTLVTVSS
VL: not shown
notes: also called anti-TfR alone; unconjugated anti-TfR
B5: anti-TfR FAB, Table 7 clone (Fab, V domains shown)
VH: B4 VH
VL: not shown
B6: anti-TfR antibody shown in Table 7 conjugated to a DMPK-targeting oligonucleotide (control DMPK-ASO) (antibody, V domains shown)
VH: B4 VH
VL: not shown
notes: Antibody-oligonucleotide conjugate; For the uptake assay the antibody was conjugated to several different DMPK-targeting oligonucleotides and labeled with Cypher5e; also called oligonucleotide-conjugated anti-TfR; anti-TfR Fab conjugates
B7: anti-TfR hIgG1 (with L234A/L235A mutations in HC constant region), Table 7 clone (antibody, V domains shown)
VH: B4 VH
VL: not shown
notes: Tied by the description 'anti-TfR IgG heavy chain (with human IgG1 constant region mutant L234A/L235A)'
B8: 2-H19 (antibody, V domains shown)
VH: EVQLQQSGAELVRSGASVKLSCTASGFNIKDYYMHWVKQRPEQGLEWIGWIDPESGDTEYAPKFQGRATMTADTSSNTAYMQLSSLTSEDTAVYYCYGHDYRVDCWGQGTSVTVSS
VL: DVVMTQTPLSLPVSLGDQASISCRSSQSLVHSNGNTYLHWYLQKPGQSPKLLIYKVSNRFSGVPDRFSGSGSGTDFTLKISRVEAEDLGVYFCSQSTHIPWTFGGGTKLEIK
notes: Tested as a mouse monoclonal IgG

Columns and labels:
[1] = biological target: T4, human transferrin receptor 1 (human, UniProt P02786 89-760, limits assumed); assay: Carterra LSA SPR array, IgG captured on anti-IgG lawn, hTfR1 as analyte, 25 C, 1:1 Langmuir fit
T4 construct: also called hTfR1; huTfR1
Method: Selected anti-TfR1 antibodies were tested for their binding affinity to human TfR1 for measurement of Ka (association rate constant), Kd (dissociation rate constant), and KD (affinity). […] The binding experiment was performed on Carterra LSA at 25 C. An anti-mouse IgG and anti-human IgG antibody “lawn” was prepared on a HC30M chip by amine coupling. 59 IgGs (58 mouse mAbs and 1 human mAb) were captured on the chip. Dilution series of hTfR1, cyTfR1, and hTfR2 were injected to the chip for binding (starting from 1000 nM, 1:3 dilution, 8 concentrations).
Binding data were referenced by subtracting the responses from a buffer analyte injection and globally fitting to a 1:1 Langmuir binding model for estimate of Ka (association rate constant), Kd (dissociation rate constant), and KD (affinity) using the Carterra™ Kinetics software. 5-6 concentrations were used for curve fitting.
Target sequence in this assay (P02786 89-760 limits assumed): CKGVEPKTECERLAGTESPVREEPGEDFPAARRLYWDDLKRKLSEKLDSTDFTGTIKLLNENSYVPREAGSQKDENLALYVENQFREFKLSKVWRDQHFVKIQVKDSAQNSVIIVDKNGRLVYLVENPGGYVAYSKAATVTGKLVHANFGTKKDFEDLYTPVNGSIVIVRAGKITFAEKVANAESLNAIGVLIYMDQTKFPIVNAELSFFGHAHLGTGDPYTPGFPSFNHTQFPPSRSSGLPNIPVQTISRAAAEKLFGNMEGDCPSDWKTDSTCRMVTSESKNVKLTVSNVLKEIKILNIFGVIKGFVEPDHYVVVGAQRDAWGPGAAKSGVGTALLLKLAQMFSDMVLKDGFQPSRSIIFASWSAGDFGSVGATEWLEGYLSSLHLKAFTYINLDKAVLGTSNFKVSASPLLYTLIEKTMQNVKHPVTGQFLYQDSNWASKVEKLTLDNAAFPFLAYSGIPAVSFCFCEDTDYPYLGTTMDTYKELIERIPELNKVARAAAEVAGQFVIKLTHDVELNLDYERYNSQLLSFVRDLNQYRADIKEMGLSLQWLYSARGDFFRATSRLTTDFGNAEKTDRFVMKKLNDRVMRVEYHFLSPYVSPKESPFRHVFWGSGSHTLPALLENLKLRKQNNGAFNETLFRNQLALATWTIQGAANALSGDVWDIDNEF

[2] = biological target: T4, human transferrin receptor 1; assay: ELISA on human TfR1
Method: (§1) The binding activity of selected formats were tested against human TfR1, cyno TfR1, and human TfR2 in an ELISA assay.

[3] = biological target: T1, cynomolgus monkey transferrin receptor 1; assay: average KD, antibody alone; method not given
[4] = biological target: T4, human transferrin receptor 1; assay: average KD, antibody alone; method not given
Target sequence in this assay (P02786 89-760 limits assumed): as above

[5] = biological target: T1, cynomolgus monkey transferrin receptor 1; assay: ELISA on cyno TfR1
Method: as §1

[6] = biological target: T2, human transferrin receptor 2; assay: ELISA
[7] = biological target: T5, human transferrin receptor 1 (human, UniProt P02786 89-760, limits assumed); assay: ELISA
T5 construct: also called hTfR1; human TfR1

[8] = biological target: T3, cynomolgus monkey transferrin receptor 1; assay: ELISA

Binder	Kd [1] [nM]	Kd [3] [nM]	Kd [4] [nM]	binding result [6]	also measured
B1	0.283	1	0.8		EC50 [2]: 0.589 nM; EC50 [5]: 1.08 nM
B2				no binding	
B3	2.72	12.4	2.72		kon [1]: 126000 M⁻¹ s⁻¹
B4					EC50 [7]: 26.6 nM; EC50 [8]: 33.6 nM
B5				no binding	
B6					EC50 [7]: 8.2 nM; EC50 [8]: 5.3 nM
B7				no binding	
B8	2.06	5.75	2.06		kon [1]: 222000 M⁻¹ s⁻¹
